Laboratory results taken from patent US20140315825A1 (GENEMEDICINE, published 2014).

Molecular target: T1, soluble Wnt decoy receptor sLRP6E1E2 (FLAG-tagged E1 and E2 extracellular domains of LRP6) (Homo sapiens (Human), UniProt O75581 20-651)
T1 construct: Expressed in the assay cells from the adenoviral vector dE1-k35/sLRP6E1E2 and not added as purified protein; also called soluble LRP6 receptor; decoy Wnt receptor; not shown: FLAG tag
T1 sequence: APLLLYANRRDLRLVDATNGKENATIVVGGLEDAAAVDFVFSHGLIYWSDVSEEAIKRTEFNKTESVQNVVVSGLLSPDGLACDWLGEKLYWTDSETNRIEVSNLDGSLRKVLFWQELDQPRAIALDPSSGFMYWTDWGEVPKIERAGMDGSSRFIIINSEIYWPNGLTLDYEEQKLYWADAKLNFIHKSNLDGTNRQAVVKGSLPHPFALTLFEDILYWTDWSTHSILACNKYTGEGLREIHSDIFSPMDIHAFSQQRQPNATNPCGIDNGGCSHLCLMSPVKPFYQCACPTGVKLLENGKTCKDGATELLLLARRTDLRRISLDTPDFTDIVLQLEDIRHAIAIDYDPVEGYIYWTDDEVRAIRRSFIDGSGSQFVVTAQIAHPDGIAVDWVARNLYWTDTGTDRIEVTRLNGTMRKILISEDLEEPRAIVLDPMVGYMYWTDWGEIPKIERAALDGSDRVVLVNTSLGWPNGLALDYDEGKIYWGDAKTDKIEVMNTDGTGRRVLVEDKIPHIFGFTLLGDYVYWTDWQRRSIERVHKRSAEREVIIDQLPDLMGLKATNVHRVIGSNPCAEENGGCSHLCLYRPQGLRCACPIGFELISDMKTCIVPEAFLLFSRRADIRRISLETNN
Test: immunoprecipitation of lysates of transduced H322 and H460 cells with anti-Wnt3a or anti-LRP6, then western blot
Experimental: FIG. 1 represents characterization of the decoy Wnt receptor sLRP6E1E2. FIG. 1a is schematic representation of the genomic structure of Ad vectors used. […] Cell culture supernatants were assessed with FLAG- or LRP6-specific Ab. (d) H322 and H460 cells were transduced with dE1-k35/LacZ or dE1-k35/sLRP6E1E2 (50 MOI) for 48 hr. Cell lysates were immunoprecipitated with antisera against Wnt3a (IP: Wnt3a) or LRP6 (IP: LRP6) followed by western blot (WB) analysis with the same antibodies.
Next, binding of sLRP6E1E2 to Wnt3a was assessed in cells transduced with dE1-k35/LacZ or dE1-k35/sLRP6E1E2. Cell lysates were immunoprecipitated with anti-Wnt3a or anti-LRP6 antibodies and analyzed by western blot.

binding result: binds
B1: Wnt3a, endogenous in human non-small cell lung cancer cell lines H322 and H460 (ligand, UniProt P56704 19-352, looked up)
chain: SYPIWWSLAVGPQYSSLGSQPILCASIPGLVPKQLRFCRNYVEIMPSVAEGIKIGIQECQHQFRGRRWNCTTVHDSLAIFGPVLDKATRESAFVHAIASAGVAFAVTRSCAEGTAAICGCSSRHQGSPGKGWKWGGCSEDIEFGGMVSREFADARENRPDARSAMNRHNNEAGRQAIASHMHLKCKCHGLSGSCEVKTCWWSQPDFRAIGDFLKDKYDSASEMVVEKHRESRGWVETLRPRYTYFKVPTERDLVYYEASPNFCEPNPETGSFGTRDRTCNVSSHGIDGCDLLCCGRGHNARAERRREKCRCVFHWCCYVSCQECTRVYDVHTCK
notes: Present in cell lysates in the immunoprecipitation; also called Wnt 3a protein
